Test results: the supplement of paper PMC5998384

How the values were obtained:
HeLa Kyoto [1] = test: solubility change mitosis vs G1/S (difference of NP-40 vs SDS log2 ratios) (log2 ratio difference); higher = more soluble in mitosis
HeLa Kyoto [2] = test: thermal stability score vs G1/S (z-score of summed log2 fold changes over temperatures); higher = more thermally stable than in G1/S
HeLa Kyoto [3] = test: melting temperature (median over replicates), in situ; higher = more thermally stable
[4] = cell cycle stage: early G1 (4.5 h after nocodazole release)
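Wherever melting temperature (median over replicates), in situ is given: HeLa Kyoto cells synchronized by double thymidine or nocodazole block, proteins quantified by TMT10plex mass spectrometry, three independent biological replicates.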
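Wherever solubility change mitosis vs G1/S (difference of NP-40 vs SDS log2 ratios) is given: synchronized HeLa Kyoto cells (double thymidine block for G1/S, nocodazole release for mitosis), protein amounts in NP-40 versus SDS lysates quantified by mass spectrometry, three biological replicates.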
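Wherever thermal stability score vs G1/S (z-score of summed log2 fold changes over temperatures) is given: synchronized HeLa Kyoto cells, proteins quantified by TMT10plex mass spectrometry, three biological replicates, mitosis taken 0.5 h after nocodazole release, G1/S directly after double thymidine block.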

Substance | solubility change mitosis (log2) (HeLa Kyoto [1]) | further results
RPS15A | 0.424 | –
MRPL13 | -0.0691 | –
RPL35 | 1.27 | –
DNPEP | -0.0236 | –
PRKACB | -0.134 | –
MRPL9 | -0.0572 | –
MRPL41 | 0.232 | –
RPS28 | 0.73 | –
MRPS10 | -0.0122 | –
MRPL32 | 0.35 | –
ACTR3 | -0.0203 | –
FSCN1 | -0.135 | –
DTX3L | 0.0969 | –
MRPL1 | -0.101 | –
MRPL28 | 0.00818 | –
MRPS22 | -0.0527 | –
RPL12 | 0.659 | –
CDK2 | -0.211 | –
SCFD1 | -0.0937 | –

Substance | solubility change mitosis (log2) (HeLa Kyoto [1]) | further results
BTF3 | 0.172 | –
MRPL2 | 0.0937 | –
RPL19 | 0.873 | –
MRPL33 | -0.0245 | –
MARAAPLLAALTALLAAAAAGGDAPPGKIAVVGAGIGGSAVAHFLQQHFGPRVQIDVYEKGTVGGRLATISVNKQHYESGAASFHSLSLHMQDFVKLLGLRHRREVVGRSAIFGGEHFMLEETDWYLLNLFRLWWHYGISFLRLQMWVEEVMEKFMRIYKYQAHGYAFSGVEELLYSLGESTFVNMTQHSVAESLLQVGVTQRFIDDVVSAVLRASYGQSAAMPAFAGAMSLAGAQGSLWSVEGGNKLVCSGLLKLTKANVIHATVTSVTLHSTEGKALYQVAYENEVGNSSDFYDIVVIATPLHLDNSSSNLTFAGFHPPIDDVQGSFQPTVVSLVHGYLNSSYFGFPDPKLFPFANILTTDFPSFFCTLDNICPVNISASFRRKQPQEAAVWRVQSPKPLFRTQLKTLFRSYYSVQTAEWQAHPLYGSRPTLPRFALHDQLFYLNALEWAASSVEVMAVAAKNVALLAYNRWYQDLDKIDQKDLMHKVKTEL [PCYOX1L] | – | thermal stability score (HeLa Kyoto [2]; [4]): 0.689; thermal stability score (HeLa Kyoto [2]; cell cycle stage: mitosis): 1.38; melting temperature (HeLa Kyoto [3]; cell cycle stage: G1/S): 56.6 °C; melting temperature (HeLa Kyoto [3]; cell cycle stage: mitosis): 56.2 °C
MRPL43 | 0.445 | –
TIMP1 | – | thermal stability score (HeLa Kyoto [2]; [4]): 0.849; thermal stability score (HeLa Kyoto [2]; cell cycle stage: mitosis): -1.24; melting temperature (HeLa Kyoto [3]; cell cycle stage: G1/S): 54.8 °C; melting temperature (HeLa Kyoto [3]; cell cycle stage: mitosis): 54.5 °C
RPS29 | 0.655 | –
RPL5 | 0.442 | –
BPTF | -0.0311 | –
RPS16 | 0.511 | –
RPL21 | 0.856 | –
RPL3 | 0.667 | –
MSYGRPPPDVEGMTSLKVDNLTYRTSPDTLRRVFEKYGRVGDVYIPRDRYTKESRGFAFVRFHDKRDAEDAMDAMDGAVLDGRELRVQMARYGRPPDSHHSRRGPPPRRYGGGGYGRRSRSPRRRRRSRSRSRSRSRSRSRSRYSRSKSRSRTRSRSRSTSKSRSARRSKSKSSSVSRSRSRSRSRSRSRSPPPVSKRESKSRSRSKSPPKSPEEEGAVSS [SRSF2] | 0.24 | thermal stability score (HeLa Kyoto [2]; [4]): -2.71; thermal stability score (HeLa Kyoto [2]; cell cycle stage: mitosis): -5.51
SLIRP | 0.0681 | –
WDR5 | -0.102 | –
MAYQLYRNTTLGNSLQESLDELIQSQQITPQLALQVLLQFDKAINAALAQRVRNRVNFRGSLNTYRFCDNVWTFVLNDVEFREVTELIKVDKVKIVACDGKNTGSNTTE [GTF2A2] | – | thermal stability score (HeLa Kyoto [2]; [4]): 0.419; thermal stability score (HeLa Kyoto [2]; cell cycle stage: mitosis): 0.557; melting temperature (HeLa Kyoto [3]; cell cycle stage: G1/S): 58.6 °C; melting temperature (HeLa Kyoto [3]; cell cycle stage: mitosis): 53.4 °C
RPL7A | 0.753 | –
